Results published in the supplement of paper PMC9112550, “Optimization of the antimicrobial peptide Bac7 by deep mutational scanning” (BMC Biology, 2022).

Test system: Escherichia coli TOP10
Assay: shrunken log2 fold change of peptide-encoding DNA abundance (4.5 h post-induction vs induction); higher = less antimicrobial activity (less host growth inhibition)
Settings: time post-induction: 4.5 h; library: site-saturation at positions 5, 18, 19, 20
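Further: peptides expressed intracellularly from a pBAD plasmid library in pooled LB shake-flask culture, induced with 0.3% L-arabinose, DNA abundance read by NGS, three biological replicates, DESeq2 with apeglm shrinkage.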

Row | Sequence | shrunken log2 fold change
1 | RRIRNRPPRLPRPRPRPGQHPRP | 0.128
2 | RRIRSRPPRLPRPRPRPVIFPRP | -0.335
3 | RRIRDRPPRLPRPRPRPGFWPRP | 0.493
4 | RRIRFRPPRLPRPRPRPEPGPRP | 0.534
5 | RRIRQRPPRLPRPRPRPKMNPRP | -0.328
6 | RRIRYRPPRLPRPRPRPNIGPRP | -0.105
7 | RRIRWRPPRLPRPRPRPMWTPRP | 0.171
8 | RRIRIRPPRLPRPRPRPHPSPRP | -0.488
9 | RRIRHRPPRLPRPRPRPSHFPRP | -0.0233
10 | RRIRFRPPRLPRPRPRPEYGPRP | -0.621
11 | RRIRDRPPRLPRPRPRPHNDPRP | -0.201
12 | RRIRYRPPRLPRPRPRPAHQPRP | 0.126
13 | RRIRGRPPRLPRPRPRPAWSPRP | 0.929
14 | RRIRDRPPRLPRPRPRPLYMPRP | 0.383
15 | RRIRHRPPRLPRPRPRPQPQPRP | -0.00539
16 | RRIRARPPRLPRPRPRPHWCPRP | 0.0773
17 | RRIRWRPPRLPRPRPRPDRMPRP | 0.0163
18 | RRIRWRPPRLPRPRPRPMAGPRP | 0.0179
19 | RRIRHRPPRLPRPRPRPANNPRP | -0.613
20 | RRIRHRPPRLPRPRPRPLHQPRP | -0.00684
21 | RRIRGRPPRLPRPRPRPIEDPRP | 0.0783
22 | RRIRPRPPRLPRPRPRPGSQPRP | 0.127
23 | RRIRQRPPRLPRPRPRPGWVPRP | -0.124
24 | RRIRKRPPRLPRPRPRPRQHPRP | 0.499
25 | RRIRFRPPRLPRPRPRPKPPPRP | 1.35

Row | Sequence | shrunken log2 fold change
26 | RRIRLRPPRLPRPRPRPFTLPRP | -0.192
27 | RRIRNRPPRLPRPRPRPPRPPRP | 0.704
28 | RRIRFRPPRLPRPRPRPWYYPRP | -0.735
29 | RRIRMRPPRLPRPRPRPFGVPRP | 0.0231
30 | RRIRTRPPRLPRPRPRPEFVPRP | 0.107
31 | RRIRVRPPRLPRPRPRPFPMPRP | -0.35
32 | RRIRKRPPRLPRPRPRPHDQPRP | 0.0273
33 | RRIRCRPPRLPRPRPRPHMLPRP | -0.431
34 | RRIRSRPPRLPRPRPRPWWEPRP | -0.0921
35 | RRIRCRPPRLPRPRPRPMGNPRP | -0.729
36 | RRIRERPPRLPRPRPRPVMAPRP | -0.0537
37 | RRIRGRPPRLPRPRPRPGCWPRP | 1.39
38 | RRIRLRPPRLPRPRPRPKRVPRP | -0.116
39 | RRIRDRPPRLPRPRPRPFNKPRP | -1.45
40 | RRIRFRPPRLPRPRPRPKCQPRP | 0.274
41 | RRIRFRPPRLPRPRPRPQYEPRP | 0.0625
42 | RRIRNRPPRLPRPRPRPGGFPRP | 0.144
43 | RRIRDRPPRLPRPRPRPHNSPRP | 0.0166
44 | RRIRCRPPRLPRPRPRPYNCPRP | -0.195
45 | RRIRNRPPRLPRPRPRPNQWPRP | -0.171
46 | RRIRIRPPRLPRPRPRPCAAPRP | -0.0041
47 | RRIRSRPPRLPRPRPRPWHKPRP | -0.195
48 | RRIRHRPPRLPRPRPRPEKYPRP | -0.159
49 | RRIRIRPPRLPRPRPRPKECPRP | 0.00902
50 | RRIRYRPPRLPRPRPRPCRCPRP | -0.0894

Row | Sequence | shrunken log2 fold change
51 | RRIRDRPPRLPRPRPRPHRHPRP | -0.00955
52 | RRIRPRPPRLPRPRPRPDYTPRP | -0.957
53 | RRIRTRPPRLPRPRPRPESLPRP | -0.00987
54 | RRIRSRPPRLPRPRPRPGLVPRP | 0.275
55 | RRIRRRPPRLPRPRPRPAMQPRP | 0.423
56 | RRIRSRPPRLPRPRPRPCMTPRP | -0.102
57 | RRIRTRPPRLPRPRPRPWPRPRP | 0.116
58 | RRIRQRPPRLPRPRPRPLIAPRP | -0.124
59 | RRIRMRPPRLPRPRPRPPLMPRP | 1.34
60 | RRIRVRPPRLPRPRPRPLENPRP | 0.124
61 | RRIRGRPPRLPRPRPRPAKEPRP | 0.414
62 | RRIRARPPRLPRPRPRPWKEPRP | 0.00952
63 | RRIRDRPPRLPRPRPRPVMGPRP | 0.0247
64 | RRIRVRPPRLPRPRPRPSNGPRP | -0.219
65 | RRIRLRPPRLPRPRPRPVPIPRP | 0.125
66 | RRIRTRPPRLPRPRPRPPTNPRP | 0.156
67 | RRIRTRPPRLPRPRPRPYGCPRP | -0.00664
68 | RRIRMRPPRLPRPRPRPMIRPRP | 0.00211
69 | RRIRLRPPRLPRPRPRPCFCPRP | -0.279
70 | RRIRGRPPRLPRPRPRPWVVPRP | 0.273
71 | RRIRERPPRLPRPRPRPAMCPRP | -0.456
72 | RRIRARPPRLPRPRPRPQFKPRP | -0.0331
73 | RRIRHRPPRLPRPRPRPYCYPRP | -0.577
74 | RRIRLRPPRLPRPRPRPWKQPRP | -0.0134
75 | RRIRHRPPRLPRPRPRPSDWPRP | -0.327

Row | Sequence | shrunken log2 fold change
76 | RRIRIRPPRLPRPRPRPQYKPRP | -0.848
77 | RRIRGRPPRLPRPRPRPGVMPRP | 1.05
78 | RRIRSRPPRLPRPRPRPNMSPRP | -0.315
79 | RRIRMRPPRLPRPRPRPCSGPRP | -0.146
80 | RRIRMRPPRLPRPRPRPLCHPRP | 0.061
81 | RRIRWRPPRLPRPRPRPTNHPRP | -0.245
82 | RRIRIRPPRLPRPRPRPMHFPRP | -0.487
83 | RRIRMRPPRLPRPRPRPINPPRP | -0.0782
84 | RRIRNRPPRLPRPRPRPHNQPRP | -0.7
85 | RRIRSRPPRLPRPRPRPMWQPRP | -0.175
86 | RRIRYRPPRLPRPRPRPAWGPRP | 0.0852
87 | RRIRERPPRLPRPRPRPMQCPRP | -0.211
88 | RRIRSRPPRLPRPRPRPKAFPRP | -0.0206
89 | RRIRRRPPRLPRPRPRPLMAPRP | 0.312
90 | RRIRRRPPRLPRPRPRPWRMPRP | 0.00176
91 | RRIRIRPPRLPRPRPRPKPSPRP | 0.128
92 | RRIRLRPPRLPRPRPRPHDFPRP | -0.205
93 | RRIRLRPPRLPRPRPRPDTVPRP | -0.399
94 | RRIRMRPPRLPRPRPRPNCAPRP | 0.317
95 | RRIRTRPPRLPRPRPRPIADPRP | -0.0123
96 | RRIRLRPPRLPRPRPRPLCKPRP | -0.398
97 | RRIRERPPRLPRPRPRPVNDPRP | -0.0156
98 | RRIRRRPPRLPRPRPRPWLKPRP | 0.127
99 | RRIRQRPPRLPRPRPRPMENPRP | -0.0199
100 | RRIRMRPPRLPRPRPRPFVSPRP | -0.0194

Row | Sequence | shrunken log2 fold change
101 | RRIRQRPPRLPRPRPRPIWEPRP | 0.0296
102 | RRIRIRPPRLPRPRPRPNGFPRP | -0.114
103 | RRIRNRPPRLPRPRPRPSRGPRP | 0.513
104 | RRIRNRPPRLPRPRPRPHDWPRP | 0.263
105 | RRIRSRPPRLPRPRPRPDALPRP | 0.353
106 | RRIRSRPPRLPRPRPRPDWIPRP | -0.337
107 | RRIRYRPPRLPRPRPRPSVVPRP | -0.844
108 | RRIRGRPPRLPRPRPRPLFGPRP | 0.584
109 | RRIRVRPPRLPRPRPRPISHPRP | -0.326
110 | RRIRERPPRLPRPRPRPHVAPRP | 0.0131
111 | RRIRRRPPRLPRPRPRPYCCPRP | -0.565
112 | RRIRPRPPRLPRPRPRPDPIPRP | 0.0782
113 | RRIRGRPPRLPRPRPRPKKFPRP | 0.582
114 | RRIRTRPPRLPRPRPRPTKNPRP | -0.083
115 | RRIRPRPPRLPRPRPRPSCFPRP | -0.193
116 | RRIRQRPPRLPRPRPRPYYNPRP | -0.392
117 | RRIRERPPRLPRPRPRPYYDPRP | -0.362
118 | RRIRRRPPRLPRPRPRPRDFPRP | 0.298
119 | RRIRMRPPRLPRPRPRPMLMPRP | 0.0323
120 | RRIRERPPRLPRPRPRPNWGPRP | 0.00892
121 | RRIRLRPPRLPRPRPRPNVLPRP | -0.304
122 | RRIRLRPPRLPRPRPRPGWQPRP | 0.175
123 | RRIRSRPPRLPRPRPRPKQKPRP | -0.000384
124 | RRIRNRPPRLPRPRPRPLAIPRP | 0.0449
125 | RRIRMRPPRLPRPRPRPMTMPRP | 0.178

Row | Sequence | shrunken log2 fold change
126 | RRIRCRPPRLPRPRPRPQVAPRP | 0.0924
127 | RRIRARPPRLPRPRPRPKSSPRP | 0.188
128 | RRIRPRPPRLPRPRPRPPPFPRP | 0.277
129 | RRIRLRPPRLPRPRPRPLYVPRP | -0.897
130 | RRIRYRPPRLPRPRPRPECQPRP | 0.0129
131 | RRIRCRPPRLPRPRPRPFYSPRP | -0.507
132 | RRIRMRPPRLPRPRPRPHKNPRP | 0.195
133 | RRIRERPPRLPRPRPRPGTCPRP | 0.0777
134 | RRIRHRPPRLPRPRPRPEEWPRP | 0.0893
135 | RRIRTRPPRLPRPRPRPFECPRP | -0.143
136 | RRIRHRPPRLPRPRPRPCWYPRP | -0.0677
137 | RRIRDRPPRLPRPRPRPQIEPRP | -0.0186
138 | RRIRTRPPRLPRPRPRPEHCPRP | -0.0755
139 | RRIRMRPPRLPRPRPRPPALPRP | 1.13
140 | RRIRNRPPRLPRPRPRPRQCPRP | 0.0196
141 | RRIRLRPPRLPRPRPRPCGSPRP | -0.105
142 | RRIRGRPPRLPRPRPRPVGWPRP | 1.26
143 | RRIRVRPPRLPRPRPRPAKVPRP | 0.203
144 | RRIRPRPPRLPRPRPRPIPVPRP | -0.402
145 | RRIRMRPPRLPRPRPRPEDRPRP | -0.0526
146 | RRIRFRPPRLPRPRPRPMCCPRP | -0.429
147 | RRIRTRPPRLPRPRPRPDSCPRP | -0.311
148 | RRIRSRPPRLPRPRPRPWYEPRP | -0.0183
149 | RRIRSRPPRLPRPRPRPEHPPRP | 0.166
150 | RRIRSRPPRLPRPRPRPQWHPRP | -0.26
